In US20200017566A1 (priority 2014, published 2020):
Square brackets hold non-standard residues; d marks the D form. βAla = NCCC(=O)O; Sar = CNCC(=O)O

T1: human ferroportin (Homo sapiens, UniProt Q9NP59)
T1 construct: expressed in transfected cells
T1 sequence (Q9NP59 1-571): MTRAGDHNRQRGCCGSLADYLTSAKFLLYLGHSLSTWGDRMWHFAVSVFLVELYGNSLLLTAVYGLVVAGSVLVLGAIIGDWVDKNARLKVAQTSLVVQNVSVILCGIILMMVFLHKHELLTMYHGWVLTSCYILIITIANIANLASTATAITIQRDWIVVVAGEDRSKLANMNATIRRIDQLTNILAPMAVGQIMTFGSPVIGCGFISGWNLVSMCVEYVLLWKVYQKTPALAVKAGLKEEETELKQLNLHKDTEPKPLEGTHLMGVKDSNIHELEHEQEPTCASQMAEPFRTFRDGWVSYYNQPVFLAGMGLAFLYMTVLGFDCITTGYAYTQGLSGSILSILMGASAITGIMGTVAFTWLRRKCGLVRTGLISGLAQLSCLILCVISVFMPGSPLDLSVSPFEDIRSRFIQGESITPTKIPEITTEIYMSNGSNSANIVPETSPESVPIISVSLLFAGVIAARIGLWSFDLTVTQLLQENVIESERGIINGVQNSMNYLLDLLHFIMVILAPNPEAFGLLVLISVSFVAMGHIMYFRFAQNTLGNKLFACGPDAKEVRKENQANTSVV

T2: human ferroportin (SLC40A1) fused to GFP (human, UniProt Q9NP59 1-571)
T2 sequence (looked up): T1 sequence (Q9NP59 1-571)

B1: CMPD No. 123 (peptide)
peptide: H-DTHFGCIIFGPRSKGWVCK-NH2
modifications: not fully specified (bridges); printed as Hy-DTHFGCIIFGPRSKGWVCK-NH2; cysteine pairing not given here
B2: CMPD No. 127 (peptide)
peptide: H-DTHF[Sar]CIIFGPRSKGWVCK-NH2
modifications: not fully specified (bridges); printed as Hy-DTHF-[Sarc]-CIIFGPRSKGWVCK-NH2; cysteine pairing not given here
B3: CMPD No. 131 (peptide)
peptide: H-DTHFKCIIFGPRSKGWVCK-NH2
modifications: not fully specified (bridges); printed as Hy-DTHFKCIIFGPRSKGWVCK-NH2; cysteine pairing not given here
B4: CMPD No. 125 (peptide)
peptide: H-DTHFRCIIFGPRSKGWVCK-NH2
modifications: not fully specified (bridges); printed as Hy-DTHFRCIIFGPRSKGWVCK-NH2; cysteine pairing not given here
B5: CMPD No. 205 (peptide)
peptide: DTHFPCIKFKPRSKGWVCK
modifications: not fully specified; IVA (isovaleric acid) on side chain of Lys 10; C-terminal amide
B6: CMPD No. 129 (peptide)
peptide: H-DTHF[βAla]CIIFGPRSKGWVCK-NH2
modifications: not fully specified (bridges); printed as Hy-DTHF-[β-Ala]-CIIFGPRSKGWVCK-NH2; cysteine pairing not given here

What was measured:
[1] = target: T1, human ferroportin; assay type: cell-based; conditions: Table 3
Protocol: Peptide analogues were tested in vitro for induction of internalization of the human ferroportin protein. Following internalization, the […] are degraded. The assay measures a decrease in fluorescence of the receptor.
The cDNA encoding the human ferroportin (SLC40A1) was cloned from a cDNA clone from Origene (NM_014585). The DNA encoding the ferroportin was amplified by PCR using primers also encoding terminal restriction sites for subcloning, but without the termination codon. The ferroportin receptor was subcloned into a mammalian GFP expression vector containing a neomycin (G418) resistance marker in such that the reading frame of the ferroportin was fused in frame with the GFP protein. The fidelity of the DNA encoding the protein was confirmed by DNA sequencing. HEK293 cells were used for transfection of the ferroportin-GFP receptor expression plasmid. The cells were grown according to standard protocol in growth medium and transfected with the plasmids using Lipofectamine (manufacturer's protocol, Invitrogen). […] The cells were propagated and frozen in aliquots.
A retro inverse peptide is a peptide with a reversed sequence in all D amino acids. […] The EC50 of these reference compounds for ferroportin degradation was determined according to the activity assay described above.

[2] = reported by Presza et al. J Clin Invest. 2011; cited from earlier work
[3] = target: T2, human ferroportin (SLC40A1) fused to GFP; test: cell-based or functional assay

Molecule | Potency EC50 [3] [µM] | other results
DTHCPIAIF [compound 473] |  | Ferroportin internalization assay EC50 (nM) [1]: Not Active
Hy-DPhe-DIle-DCys-DIle-DPro-DPhe-DHis-DThr-DAsp-NH2 [RI-Mini Hepcidin] |  | activity in vivo [2]: highly active in vivo
B1 | > 10 | 
B2 | > 10 | 
B3 | > 10 | 
B4 | > 10 | 
B5 | > 0.3 | 
B6 | > 10 | 
